Columns and labels:
[1] = target: fully functional core construct of the rat cardiac sodium channel NaV1.5 (rNaV1.5C) (rat) (UniProt P15389); test: cryo-EM structure; purified rNaV1.5C (~1 mg/ml) mixed with 50 uM LqhIII and purified FGF12b and calmodulin, re-run on Superose-6 in 25 mM imidazole pH 6.0, 150 mM NaCl, 0.006% GDN; peak concentrated to 5 mg/ml; no membrane potential
[2] = target: fully functional core construct of the rat cardiac sodium channel NaV1.5 (rNaV1.5C) (rat) (UniProt P15389)

UniProt P15389, sequence (P15389 whole entry): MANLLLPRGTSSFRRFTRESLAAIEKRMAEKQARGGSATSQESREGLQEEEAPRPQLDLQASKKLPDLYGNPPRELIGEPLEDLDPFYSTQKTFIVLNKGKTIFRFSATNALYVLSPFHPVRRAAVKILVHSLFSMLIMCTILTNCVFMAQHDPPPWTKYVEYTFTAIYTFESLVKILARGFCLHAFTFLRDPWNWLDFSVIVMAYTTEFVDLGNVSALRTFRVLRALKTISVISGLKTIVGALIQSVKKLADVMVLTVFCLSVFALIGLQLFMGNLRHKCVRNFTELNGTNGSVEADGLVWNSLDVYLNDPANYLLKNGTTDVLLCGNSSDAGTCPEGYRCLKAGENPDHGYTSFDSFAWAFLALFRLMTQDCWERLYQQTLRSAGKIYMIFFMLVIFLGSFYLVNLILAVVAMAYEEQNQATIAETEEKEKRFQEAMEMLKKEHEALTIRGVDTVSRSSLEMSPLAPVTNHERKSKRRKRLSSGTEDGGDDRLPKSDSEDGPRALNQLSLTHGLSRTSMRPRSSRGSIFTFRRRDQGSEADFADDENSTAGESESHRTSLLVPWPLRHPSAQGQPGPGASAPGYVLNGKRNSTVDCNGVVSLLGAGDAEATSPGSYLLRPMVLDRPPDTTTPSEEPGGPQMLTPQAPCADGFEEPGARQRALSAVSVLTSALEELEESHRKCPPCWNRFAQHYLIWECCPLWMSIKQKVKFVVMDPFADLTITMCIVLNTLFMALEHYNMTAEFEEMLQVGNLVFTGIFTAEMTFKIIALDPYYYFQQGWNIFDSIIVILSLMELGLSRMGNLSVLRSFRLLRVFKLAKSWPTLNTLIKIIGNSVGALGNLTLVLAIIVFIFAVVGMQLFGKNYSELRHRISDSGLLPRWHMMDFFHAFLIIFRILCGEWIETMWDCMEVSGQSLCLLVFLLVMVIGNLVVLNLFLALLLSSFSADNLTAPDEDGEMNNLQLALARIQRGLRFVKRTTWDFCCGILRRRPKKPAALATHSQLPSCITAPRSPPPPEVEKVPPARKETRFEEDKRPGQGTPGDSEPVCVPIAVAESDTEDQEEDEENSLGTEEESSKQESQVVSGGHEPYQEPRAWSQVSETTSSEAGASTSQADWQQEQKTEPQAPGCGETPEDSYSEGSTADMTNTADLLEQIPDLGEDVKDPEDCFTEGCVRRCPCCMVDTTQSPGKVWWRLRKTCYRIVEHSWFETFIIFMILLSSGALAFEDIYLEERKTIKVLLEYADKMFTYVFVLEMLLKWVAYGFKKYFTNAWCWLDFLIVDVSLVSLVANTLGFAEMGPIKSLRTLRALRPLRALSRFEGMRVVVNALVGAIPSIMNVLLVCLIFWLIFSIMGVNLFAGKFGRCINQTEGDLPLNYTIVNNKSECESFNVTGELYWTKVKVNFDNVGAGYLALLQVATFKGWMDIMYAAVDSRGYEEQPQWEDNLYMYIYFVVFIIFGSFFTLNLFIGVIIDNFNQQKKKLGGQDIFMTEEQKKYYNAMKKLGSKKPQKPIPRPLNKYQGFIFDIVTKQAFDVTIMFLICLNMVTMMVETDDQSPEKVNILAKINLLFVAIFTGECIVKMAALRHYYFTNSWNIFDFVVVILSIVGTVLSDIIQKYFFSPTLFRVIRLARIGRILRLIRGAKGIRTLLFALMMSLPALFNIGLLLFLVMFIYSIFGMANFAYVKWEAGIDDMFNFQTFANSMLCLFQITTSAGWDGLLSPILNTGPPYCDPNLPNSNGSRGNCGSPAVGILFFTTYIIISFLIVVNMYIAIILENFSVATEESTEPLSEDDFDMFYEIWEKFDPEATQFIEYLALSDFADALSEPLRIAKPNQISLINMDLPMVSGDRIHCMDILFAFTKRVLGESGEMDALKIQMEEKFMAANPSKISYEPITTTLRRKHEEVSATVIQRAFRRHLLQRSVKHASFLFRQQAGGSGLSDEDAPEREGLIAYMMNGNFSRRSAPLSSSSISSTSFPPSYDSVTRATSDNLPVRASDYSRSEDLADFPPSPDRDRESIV

B1: α-scorpion toxin LqhIII from the deathstalker scorpion Leiurus quinquestriatus hebraeus (natural protein)
chain: VRDGYIAQPENCVYHCFPGSSGCDTLCKEKGGTSGHCGFKVGHGLACWCNALPDNVGIIVEGEKCHS
B1 gave a stoichiometry N [1] of 1, an inhibition of fast inactivation: sodium current remaining 6 ms after the depolarizing pulse, whole-cell patch clamp of HEK293S GnTI- cells expressing rNaV1.5C, 1-1000 nM LqhIII [2] of 11.4 nM and a time course of the block of fast inactivation on perfusion of 100 nM LqhIII, cells held at -120 mV, single exponential fit [2] of 11.3 min.

Source: PMC7782738
